Source: the nanobody polyreactivity screen of Harvey et al. (2022)

Assay: yeast display, Sf9 membrane polyspecificity reagent, FACS + sequencing; frameworks hold sequencing errors
How it was run: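 Nanobodies came from a synthetic yeast display library in Saccharomyces cerevisiae BJ5465, induced with galactose for 36–48 hours and stained for 1 hour at 4 °C with 10% biotinylated, detergent-solubilized Sf9 membrane reagent. Cells were enriched on streptavidin microbeads and then FACS-sorted, with low and high (top ~1%) gates set on anti-HA fluorescence for expression and streptavidin fluorescence for reagent binding. Each polyreactivity label reflects the gate a clone came from. Genes were amplified by colony PCR, sequenced by MiSeq 2 × 250 and filtered by CDR length.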

Sequence	polyreactivity (PSR sort gate)
QVQLVESGGGLVQAGGSLRLSCAASGFTFKYYAMGWYRQAPGKERELVAVISTRGTNTYYADSVKGRFTISRDNAKNTVYLQMNSLKPEDTAVYYCAAVLGGNSRLDYWGQGTQVTVSS	high polyreactivity
QVQHVESGGGLVQAGGSLRLSCAASGRILKPNAMGWYRPAPGKERELVAAIRWRGDITYYADSVKGRFTISRDNAKNTVYLQMNSLKPEDTAVYYCNARTYYRRQKYDYWGQGTKVTVSS	high polyreactivity
QVHLVESGGGLVQAGGILRLSCAASGFTFIHYGMGWYRQAPGKERELVAAISSRGGRTYYADSVKGRFTISRDNAKNTVYLQMNSLKPEDTAVYYCNRDYAVISYGEYDSWGQGTEVTVSS	high polyreactivity
QVQLVESGGGLVQAGGRLRLSCAASGGIFGQNAMRWYRQAPGKERELVAGISASGGSTYYADSVKGRFTISRDNAKNTVYLQRNSLKPEDTAVYYCAARTKRRRYDYWGQGTQVTVSS	high polyreactivity
QVQLVESGGGLVQAGGSLRLSCAASGSIFYIYAMGWYRQAPGKERELVAAITSSVGRTYYADSVKGRFTISRDNAKNTFYLQMNSLKAEDTAVYYCAADYYYSQVAYVYWGHGTQVTVSS	high polyreactivity
QVQLVESGGGLLQAGGSLRLSSAASGGTFPKYTKGWYRPAPGKEWELVAAITSRGGTYYADSVKGRFTISRDNAKNSVYLQMNSLKPEDTAVYYCAAEYSYSSYLWYDYWGQGTQVTVSS	high polyreactivity
QVQLVESGGGIVQAGGSLRLSSAASGSTFVYNAMGSYRQAPGKERELVASITRSGSSTYYADSVKGRFTISRDNAKNTVYLQMNSLKPEDSAVYYCAVRYYVLSYYRYYYWGQGTQVTVSS	low polyreactivity
QVQLVESGGGLVQAGGSLRLSCAASGSIIAANAMGWYRQAPGKERELVAAITFDSGSTHYADSVKGRFTISRDNAKNTFYLQMNSLKPEDTAVYYCAVRDFNSDYDDWGQGTQVTVSS	low polyreactivity
QVQLVESGGGLVQAGGSLRLSCAASGSTFYYYVRGWYRQAPGKERELVAAINSGGSTYYADSVKGRFTISRDNAKNTVYLQMNSLKPEDTAVYYCAKSWSYWYQYYYWGQGSQVTVSS	low polyreactivity
QVQLVESGGVLVQAGASLRLSCAASGLTFAVYTMGGYRQAPGKEMELVAAITWDGGITYYADSVKGRFTISRDNAKYTVYLQMNSLKPEDTAVYYCAADYALGEVYWYNYWGQGTQVTVSS	low polyreactivity
QVQLVESGGGLVQAGGTLRLSCAASGRIFSRYVMGWYRQAPGKQRELVASISWSGGSTRYADSVKGRFTISRDNAKNTVYVQMNSLKPEDTAVYYCAARFILSKYGSGVRYNYWGQGTQVTVSS	high polyreactivity
QVQHVESGGGLVQAGGSLRLSCAASGRTFARYTMGWYRQAPGKERELVAVISRSGGSTYYADSVKGRFTISRDNAKNSVYLQMNSVKPEDTAVYYCAAGDFVVSTLEYYYWGQGTQVTVSS	high polyreactivity
QVQLVESGGGLVQAAGSLRLSCAASGRTFSANAMGWYRQAPGKERELVATISSGGRTNYADSVKGRFTISRDNAKNTVYLQMNSLKPEDTAVYYCAKRGPYKRWYGRYDYCGQGTQVTVSS	low polyreactivity
QVQLVESGGGLVQAVGSLRLSCAASGRIFRYYAMGWYRQATGKESELVAAISDSSGYTYYADSVKGRFTISRDNAKNTVYLQMISLKPEDTAVYYCRDYLGSGYYYWGQGTQVTVSS	high polyreactivity
QVQLVESGGCLVQAGGRLRISSAASGSIFAINDIGWYRQAPGKERELVAAIRSGGRTYYADSVKGRFTISRDNAKNTVYLQMNSLKPEYTAVYYCNAGGKWIGSDNWGQGTQVTVSS	high polyreactivity
QVQLVESGGGLVQAGGSLRLSCAASGSMFVTNALGWYRQAPGTERELVAAMSVSGGSTYYADSVKGRFTISRDNAKNTVDLQMNSLKPEDTAVYYCNTVRSPPGHDYWGQGTQVTVSS	low polyreactivity
QVQLVESGGGLVQAGGSLRLSCAASGRSFSRNAMGWYRQAPGTERELVAGISSGGSTNYADSVKGRFTISPDTAKNTVYIQMNSLKPEDTAVYYCAKDSAEFVTRYDYWGQGTQVTLSS	low polyreactivity
QVQLVESGGGLVQAGGSLRLSCAASGRTFYRYAMGWYRQAPGKEREFVAAISRCGGSTYYADSVKGRFTISRDNAKNTVFLQMNRLKPEDTGVYYCNADTRAGGFYTPYGRDYWGQGSQVTVSS	high polyreactivity
QVQLVESGGGLVQAGGSLRLSCAASGSTFGWNTMGWYRQAPGKERELVAAISWSGDRTYYADSVKGRFTISRDNAKNTVYLQMNSLKPDDTAVYYCARQRYYGYYYWGQGTQVTVSS	high polyreactivity
QVQLVESGGGLVQAGGSLRLSCAASGRIFDVYAMGWYRQAPVKERELVAAITWRGGTTYYADSVKGRFTISRDNAKNTVYLQMHTLKPEDTAVYYCNADLVYYSKHQKYSYDYWGQGTQVTVSS	low polyreactivity
QVQLVESGGGLVQAGGSLRLSCAASGRIFAAYAMGWYRQAPGKERELVDAISSTGGTTYYADSVKGRFTISRDNAKNTVYLQMNSLKPEDTAVYYCATTVIVTKGSWHYSYDYWGQGTQVTVSS	low polyreactivity

Sequence	polyreactivity (PSR sort gate)
QVQLVESGGGLVQAGGSHRLSCAASGSTLTWYAMGWYRQAPWKEWELVDTISSSTGSTRYADSVKGRFTISRDNAKNSVYLRINSLKPDDTAVYYCAKAYALRYARGRARYDYDFWGQGTQVNVSS	low polyreactivity
QVQLVESGGGLVQAGGSLRLSCAASGITFGAYTMGWYRQAPGKERELVAAISRTGARTYYADSVKGRFTISRDNAKNTVYLQMNSLKPEDTAVYYCAAYRIGQYDYWGQGTQVTVSS	high polyreactivity
QVQLVESGGRLVHAGGSLRISCAASGSILTRNAMGWYRPAPGKERELVAASTKRGGTTYYADSVKGRFTISRDNAKNTVYLQMNSLKQEDNAVYYCAARNGGRFSFEFNYWGQGTQVTVSS	high polyreactivity
QDQLVESGGGLVQAGGSLRLSFAASGNIFRYYAMGWYRQAPGKERELVAAISRSGGNTYYADSVKGRFTISRDNAKNTVYLQMNSLKTEDTAVYYCAVVLSTYSYADYDYWGQGTQVTLSS	high polyreactivity
QVQLVESGGGLVQAGGSLRLSCPASGSIFYSYAMGWYRQAPGKERELVAAISWDASTYYADSVKGRFTISRDNAKNTVYLQMNSLKPEYTAVYYCNAVYRVWYAEWSTVGSPHDYWGQGTQVTVSS	low polyreactivity
QVQLVESGGGLVQAGGSLRLSCAASGSTFVDYAMGWYRPAPGKERELVAAINSDGGGTYYADSVKGRFTISRDNAKNTVYLQMNSLKPEDTAVYYCAAVGYTTYRRYDYWGQGTQVTVSS	low polyreactivity
QVQLVESGGGLVQAGGSLRLSCAASGRIFYGYAMGWYRQAPGKERELVAASRYSGGSTYADSVKGRFTISRDNAKNTVFLQMNSLKPEVTAVYYCAAGDAPYVAWDQYQDNVFRYDYWGQGTQVTVSS	low polyreactivity
QVQLVESGGGLVQAGGSLRLSCAASGFIIPGYAMGWYRQAPGKERELVAAISSGTSTYYADSVKGRFTISRDNAKNTVYLQMNSLKPEDTAVYYCAAETWYRFGYWGQGTQVTVSS	low polyreactivity
QVQIVESGGGLVQAGGSLRLSCAASGSIFDKNAMGWYRQAPGKEREFVAAITWSDGNTYYADSVKGRFTISRDNAKNTVYLQMNSLKREHTAVYYCNADALGVFWDRGGWFDDYWGQGTQVTVSS	low polyreactivity
QVQLVESGGGLVQAGGSLSLSCAASGSTFAYYAMGWYRQAPGKERELVAGITWTGGSTYYADSVKGRFTISRDNAKNTVYIQMNSLKPEDTAVYYCAVTYPISEFYWGVKDRYDYWGQCTQVTVSS	low polyreactivity
QVQLVESGGGLVQAGGSLRLSCAASGIIFYYYAMGWYRQAPGKERELVAAISKSGGSTYYADSVKGRFTISRDNAKNTVYLQMNRLKPEDTAVYYCAARGPSWLSYNYWGQGTQVTVSS	high polyreactivity
QVQLVESGGGLVQARGSLRLSSAASRSTFNVYAMGWYRQAPGKERELVAGIRDSDGSTNYADSVKGRFTISRDNAKNTVYLQMNSLKPEDTAVYYCAADLYDINWSVWLDYWGQGTQVTVSS	low polyreactivity
QVQLVESGGGLVQAGGSLRLSCAASGSTQNVYAMGWYRQATGKERELVAAIRWSGDTYYADSVKGRFTISRDNAKNTVYLQMNSLKPEDTAVYYCAAVPGTTYWQRFDYWGQGTQVTVSS	low polyreactivity
QVQHVESGGGLVQAGGSLRLSCAASRLTFTRNAMGWYRQAPGKERELVAAITRSSGSTYYADSVKGRFTISRDNAKNTVYLQMNSLKPEDTAVYYCNARRAAYYHRARELDYWGQGTQVTVSS	high polyreactivity
QVQLVESGGGLVQAGGSLRLTCAASGSTFLYYAMGWSREGPGNERELVATITHGGATNYADSVKGRFTISRDNAKNTVYLELNSLIPDDTAVYYCATDSYHYSYGYASLPEYDYWGHGTQVTVSS	low polyreactivity
QVQLVESGGGLVQAGGSLRLSCAASGSIFDDNAMGWYRQAPGKEREMVAAISANDGSTYYADSVKGRFTISRDNAKNTVYLQRNSLNPEDTAVYYCAADVKDYAAQMDSWGQGTQVTVSS	low polyreactivity
QVQLVESGGGLVQAGGSLRLSCAASGITFLPYTMGWYRQAPGKERELVATISWNGGSTYYADSVKGRFTISRDNAKNTVYLQMNSLKPEDTAVYYCAARQVQAPRSIGFYYWGQGTQVTVSS	high polyreactivity
QVQLVESGAGLVQAGGRLRLSCAASGSIFWRYAMGWSIQAPGKERELVAAINYSTTRTYYADSVKGRFTISRDNAKNTVYLQMNSLKPVDTAVYYCAADSRVDEGEYWGQGTQVTVSS	high polyreactivity
QVQLVESGGGLVQAGGSLRLSCAASGSTLWYNARGWYRDAPGKERELVAAITTSTDSTYYADSVKGRFTISRYNAKNTVYLQMNSLKPEDTAVYYCAAVLHLNGGGKAYDYWGLGTQVTVSS	low polyreactivity
QVQLVESGGGLVQAGGSLRLSCAASVSTFDSYVMGWYRQAPGKERELVAAITSGGSTYYADSVKGRFTISRDNAKNTVYLQMNSLKPVDTAVYYCNRDERVGKWGYYWGQGTQVTVSS	low polyreactivity
